Assay results: patent US11653679B2, “High-purity steviol glycosides” (PureCircle Sdn Bhd, priority 2014, dated 2023)
Substitutions are numbered along the chain they refer to.

B1: UGT76G1var45: UGT76G1 variant, mutations V279I_D301N_S389E (protein, UniProt Q6VAB4 1-458, looked up, variant V279I D301N S389E)
UDP-glycosyltransferase 76G1: MENKTETTVRRRRRIILFPVPFQGHINPILQLANVLYSKGFSITIFHTNFNKPKTSNYPHFTFRFILDNDPQDERISNLPTHGPLAGMRIPIINEHGADELRRELELLMLASEEDEEVSCLITDALWYFAQSVADSLNLRRLVLMTSSLFNFHAHVSLPQFDELGYLDPDDKTRLEEQASGFPMLKVKDIKSAYSNWQILKEILGKMIKQTKASSGVIWNSFKELEESELETVIREIPAPSFLIPLPKHLTASSSSLLDHDRTVFQWLDQQPPSSVLYISFGSTSEVDEKDFLEIARGLVNSKQSFLWVVRPGFVKGSTWVEPLPDGFLGERGRIVKWVPQQEVLAHGAIGAFWTHSGWNSTLESVCEGVPMIFSDFGLDQPLNARYMEDVLKVGVYLENGWERGEIANAIRRVMVDEEGEYIRQNARVLKQKADVSLMKGGSSYESLESLVSYISSL
B2: UGT76G1var48: UGT76G1 variant, mutations V394I_Y397E_Q432E (protein, UniProt Q6VAB4 1-458, looked up, variant V394I Y397E Q432E)
UDP-glycosyltransferase 76G1: B1 UDP-glycosyltransferase 76G1 with I279V, N301D, E389S, V394I, Y397E, Q432E
B3: UGT76G1var67: UGT76G1 variant, mutations E224D_F314S_S375R_Y397E (protein, UniProt Q6VAB4 1-458, looked up, variant E224D F314S S375R Y397E)
UDP-glycosyltransferase 76G1: B1 UDP-glycosyltransferase 76G1 with E224D, I279V, N301D, F314S, S375R, E389S, Y397E
B4: UGT76G1var46: UGT76G1 variant, mutations F22L_Q266E_I295M (protein, UniProt Q6VAB4 1-458, looked up, variant F22L Q266E I295M)
UDP-glycosyltransferase 76G1: B1 UDP-glycosyltransferase 76G1 with F22L, Q266E, I279V, I295M, N301D, E389S
B5: UGT76G1var1: UGT76G1 variant, mutations E224A_F314S_R334K (protein, UniProt Q6VAB4 1-458, looked up, variant E224A F314S R334K)
UDP-glycosyltransferase 76G1: B1 UDP-glycosyltransferase 76G1 with E224A, I279V, N301D, F314S, R334K, E389S
B6: UGT76G1var61: UGT76G1 variant, mutations I43V_F265I_Q266S_L379A (protein, UniProt Q6VAB4 1-458, looked up, variant I43V F265I Q266S L379A)
UDP-glycosyltransferase 76G1: B1 UDP-glycosyltransferase 76G1 with I43V, F265I, Q266S, I279V, N301D, L379A, E389S
B7: UGT76G1var51: UGT76G1 variant, mutations K303G_S357C_S389E_V396F (protein, UniProt Q6VAB4 1-458, looked up, variant K303G S357C S389E V396F)
UDP-glycosyltransferase 76G1: B1 UDP-glycosyltransferase 76G1 with I279V, N301D, K303G, S357C, V396F
B8: UGT76G1var52: UGT76G1 variant, mutations D301N_I373L_F377C_I407V (protein, UniProt Q6VAB4 1-458, looked up, variant D301N I373L F377C I407V)
UDP-glycosyltransferase 76G1: B1 UDP-glycosyltransferase 76G1 with I279V, I373L, F377C, E389S, I407V
B9: UGT76G1var50: UGT76G1 variant, mutations F22Y_V310I_S375M_F377C (protein, UniProt Q6VAB4 1-458, looked up, variant F22Y V310I S375M F377C)
UDP-glycosyltransferase 76G1: B1 UDP-glycosyltransferase 76G1 with F22Y, I279V, N301D, V310I, S375M, F377C, E389S
B10: UGT76G1var56: UGT76G1 variant, mutations L246F_A352G_S357N_Q432E (protein, UniProt Q6VAB4 1-458, looked up, variant L246F A352G S357N Q432E)
UDP-glycosyltransferase 76G1: B1 UDP-glycosyltransferase 76G1 with L246F, I279V, N301D, A352G, S357N, E389S, Q432E
B11: UGT76G1var47: UGT76G1 variant, mutations E229A_T284I_S389E (protein, UniProt Q6VAB4 1-458, looked up, variant E229A T284I S389E)
UDP-glycosyltransferase 76G1: B1 UDP-glycosyltransferase 76G1 with E229A, I279V, T284I, N301D
B12: UGT76G1var63: UGT76G1 variant, mutations F314S_R334H_Q342K_L379G (protein, UniProt Q6VAB4 1-458, looked up, variant F314S R334H Q342K L379G)
UDP-glycosyltransferase 76G1: B1 UDP-glycosyltransferase 76G1 with I279V, N301D, F314S, R334H, Q342K, L379G, E389S
B13: UGT76G1var58: UGT76G1 variant, mutations S357C_S375M_N409R_Q425E (protein, UniProt Q6VAB4 1-458, looked up, variant S357C S375M N409R Q425E)
UDP-glycosyltransferase 76G1: B1 UDP-glycosyltransferase 76G1 with I279V, N301D, S357C, S375M, E389S, N409R, Q425E
B14: UGT76G1var62: UGT76G1 variant, mutations L243P_P272A_V394I_V396F (protein, UniProt Q6VAB4 1-458, looked up, variant L243P P272A V394I V396F)
UDP-glycosyltransferase 76G1: B1 UDP-glycosyltransferase 76G1 with L243P, P272A, I279V, N301D, E389S, V394I, V396F
B15: UGT76G1var53: UGT76G1 variant, mutations R334K_A352G_P382M_S389E (protein, UniProt Q6VAB4 1-458, looked up, variant R334K A352G P382M S389E)
UDP-glycosyltransferase 76G1: B1 UDP-glycosyltransferase 76G1 with I279V, N301D, R334K, A352G, P382M
B16: UGT76G1var57: UGT76G1 variant, mutations S241I_T263S_L379G_A385T (protein, UniProt Q6VAB4 1-458, looked up, variant S241I T263S L379G A385T)
UDP-glycosyltransferase 76G1: B1 UDP-glycosyltransferase 76G1 with S241I, T263S, I279V, N301D, L379G, A385T, E389S
B17: UGT76G1var55: UGT76G1 variant, mutations I295M_Q342E_V366I_N409R (protein, UniProt Q6VAB4 1-458, looked up, variant I295M Q342E V366I N409R)
UDP-glycosyltransferase 76G1: B1 UDP-glycosyltransferase 76G1 with I279V, I295M, N301D, Q342E, V366I, E389S, N409R
B18: UGT76G1var60: UGT76G1 variant, mutations E231A_L243A_V279I_S357N (protein, UniProt Q6VAB4 1-458, looked up, variant E231A L243A V279I S357N)
UDP-glycosyltransferase 76G1: B1 UDP-glycosyltransferase 76G1 with E231A, L243A, N301D, S357N, E389S
B19: UGT76G1var49: UGT76G1 variant, mutations F41L_Q266E_T284I_Y397Q (protein, UniProt Q6VAB4 1-458, looked up, variant F41L Q266E T284I Y397Q)
UDP-glycosyltransferase 76G1: B1 UDP-glycosyltransferase 76G1 with F41L, Q266E, I279V, T284I, N301D, E389S, Y397Q
B20: UGT76G1var59: UGT76G1 variant, mutations I335V_K393G_V394I_Y397Q (protein, UniProt Q6VAB4 1-458, looked up, variant I335V K393G V394I Y397Q)
UDP-glycosyltransferase 76G1: B1 UDP-glycosyltransferase 76G1 with I279V, N301D, I335V, E389S, K393G, V394I, Y397Q
B21: UGT76G1var54: UGT76G1 variant, mutations E229A_T284L_R334K_Q342E (protein, UniProt Q6VAB4 1-458, looked up, variant E229A T284L R334K Q342E)
UDP-glycosyltransferase 76G1: B1 UDP-glycosyltransferase 76G1 with E229A, I279V, T284L, N301D, R334K, Q342E, E389S
B22: UGT76G1var65: UGT76G1 variant, mutations A33G_A239V_P382M_Q425E (protein, UniProt Q6VAB4 1-458, looked up, variant A33G A239V P382M Q425E)
UDP-glycosyltransferase 76G1: B1 UDP-glycosyltransferase 76G1 with A33G, A239V, I279V, N301D, P382M, E389S, Q425E
B23: UGT76G1var2: UGT76G1 variant, mutations S274G_T284I_L379G (protein, UniProt Q6VAB4 1-458, looked up, variant S274G T284I L379G)
UDP-glycosyltransferase 76G1: B1 UDP-glycosyltransferase 76G1 with S274G, I279V, T284I, N301D, L379G, E389S
B24: UGT76G1var3: UGT76G1 variant, mutations I295T_S357C_V366I (protein, UniProt Q6VAB4 1-458, looked up, variant I295T S357C V366I)
UDP-glycosyltransferase 76G1: B1 UDP-glycosyltransferase 76G1 with I279V, I295T, N301D, S357C, V366I, E389S
B25: UGT76G1var64: UGT76G1 variant, mutations F22L_A239I_R334H_I407V (protein, UniProt Q6VAB4 1-458, looked up, variant F22L A239I R334H I407V)
UDP-glycosyltransferase 76G1: B1 UDP-glycosyltransferase 76G1 with F22L, A239I, I279V, N301D, R334H, E389S, I407V
B26: UGT76G1var68: UGT76G1 variant, mutations Q342K_G348P_I373L_Y397E (protein, UniProt Q6VAB4 1-458, looked up, variant Q342K G348P I373L Y397E)
UDP-glycosyltransferase 76G1: B1 UDP-glycosyltransferase 76G1 with I279V, N301D, Q342K, G348P, I373L, E389S, Y397E
B27: UGT76G1var66: UGT76G1 variant, mutations F265L_V310I_V366I_A385T (protein, UniProt Q6VAB4 1-458, looked up, variant F265L V310I V366I A385T)
UDP-glycosyltransferase 76G1: B1 UDP-glycosyltransferase 76G1 with F265L, I279V, N301D, V310I, V366I, A385T, E389S

Assay: Directed evolution of UGT76G1, Rebaudioside D to Rebaudioside M, round 1 (Example 26)
Type: biochemical
Conditions: 100 μL fresh lysate, 0.5 mM Rebaudioside D, 30° C., pH 7.2
Experimental: Lysis was performed by addition of Bugbuster® Master mix (Novagen®) to the thawed cells and the lysate was recovered by centrifugation. Activity tests were performed with 100 μL of fresh lysate that was added to a solution of Rebaudioside D (final concentration 0.5 mM), MgCl2 (final concentration 3 mM) and UDP-Glucose (final concentration 2.5 mM) in 50 mM phosphate buffer pH 7.2.
The reaction was allowed to run at 30° C. and samples were taken after 2, 4, 7 and 24 h. to determine conversion and initial rate by HPLC (CAD detection) using the analytical method that was described above for the transformation of Rebaudioside D to Rebaudioside M. The results are depicted in the following table.

| Molecule | initial rate | conversion Reb D to Reb M after 24 h |
| --- | --- | --- |
| B1 | 2.3E+07 Reb M area/min |  |
| B2 | 3.8E+07 Reb M area/min |  |
| B3 | −5.6E+05 Reb M area/min | −2.1% |
| B4 | 9.8E+05 Reb M area/min | 0.6% |
| B5 | 5.5E+07 Reb M area/min |  |
| B6 | 2.0E+06 Reb M area/min | 6.4% |
| B7 | 9.5E+06 Reb M area/min |  |
| B8 | 4.6E+06 Reb M area/min |  |
| B9 | 7.9E+05 Reb M area/min | 1.9% |
| B10 | 4.1E+04 Reb M area/min | 0.4% |
| B11 | 2.7E+06 Reb M area/min | 4.8% |
| B12 | 1.2E+06 Reb M area/min | 3.4% |
| B13 | 2.2E+06 Reb M area/min | 7.5% |
| B14 | 3.4E+04 Reb M area/min | 0.1% |
| B15 | 4.1E+06 Reb M area/min | 9.3% |
| B16 | 1.5E+05 Reb M area/min | 0.8% |
| B17 | 2.2E+05 Reb M area/min | 1.0% |
| B18 | 9.5E+04 Reb M area/min | 0.5% |
| B19 | 1.1E+06 Reb M area/min | 2.6% |
| B20 | 2.7E+07 Reb M area/min | 33.0% |
| B21 | 4.3E+05 Reb M area/min | 0.7% |
| B22 | 3.3E+05 Reb M area/min | 1.2% |
| B23 | 4.7E+07 Reb M area/min |  |
| B24 | 1.6E+06 Reb M area/min | 9.6% |
| B25 | 3.1E+04 Reb M area/min | 0.3% |
| B26 | −1.1E+05 Reb M area/min | −1.4% |
| B27 | 3.7E+05 Reb M area/min | 0.8% |
